Experiments:
recombinant GDF11 = molecular target: T1, recombinant GDF11 (UniProt O95390 299-407); assay: cell-based or functional assay
T1 sequence (looked up): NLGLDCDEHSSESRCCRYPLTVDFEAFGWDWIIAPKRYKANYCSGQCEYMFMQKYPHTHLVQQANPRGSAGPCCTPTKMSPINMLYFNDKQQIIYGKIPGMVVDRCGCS

recombinant MSTN = molecular target: T2, recombinant MSTN (UniProt O14793 267-375); assay: cell-based or functional assay
T2 sequence (looked up): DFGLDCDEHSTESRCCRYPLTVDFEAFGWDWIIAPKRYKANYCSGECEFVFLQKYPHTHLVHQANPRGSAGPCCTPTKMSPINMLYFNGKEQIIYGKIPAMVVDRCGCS

B1: GDF11 propeptide-Fc (Fc fusion, human, UniProt O95390 25-298, looked up)
chain: AEGPAAAAAAAAAAAAAGVGGERSSRPAPSVAPEPDGCPVCVWRQHSRELRLESIKSQILSKLRLKEAPNISREVVKQLLPKAPPLQQILDLHDFQGDALQPEDFLEEDEYHATTETVISMAQETDPAVQTDGSPLCCHFHFSPKVMFTKVLKAQLWVYLRPVPRPATVYLQILRLKPLTGEGTAGGGGGGRRHIRIRSLKIELHSRSGHWQSIDFKQVLHSWFRQPQSNWGIEINAFDPSGTDLAVTSLGPGAEGLHPFMELRVLENTKRSRR
B1 was tested, and the “average myotube diameter relative to control, C2C12 myotubes expressing GDF11PRO-Fc (AAV6) treated with 100 ng/ml rGDF11 (rGDF11 alone: − 39%)” value (recombinant GDF11) was -1.8%, the “differentiation index relative to untreated control, C2C12 myotubes expressing GDF11PRO-Fc (AAV6) treated with 100 ng/ml rGDF11 (rGDF11 alone: − 15%)” value (recombinant GDF11) was -1.9% and the “average myotube diameter relative to control, C2C12 myotubes expressing GDF11PRO-Fc (AAV6) treated with 100 ng/ml rMSTN (rMSTN alone: − 35%)” value (recombinant MSTN) was -5.3%. For the same binder, the “differentiation index relative to untreated control, C2C12 myotubes expressing GDF11PRO-Fc (AAV6) treated with 100 ng/ml rMSTN (rMSTN alone: − 14%)” value (recombinant MSTN) was -3%.

Source: publication PMC6537384, “A GDF11/myostatin inhibitor, GDF11 propeptide-Fc, increases skeletal muscle mass and improves muscle strength in dystrophic mdx mice” (Skeletal Muscle, 2019)
